In patent publication US20230192896A1 (BIOVERATIV THERAPEUTICS, published 2023):

Target: T1, non-activatable Factor X (FXn) (Homo sapiens (Human), UniProt P00742 41-488, single biotin on the C-terminal BioTag)
T1 construct: also called BIIB-FX-015
Experiment: BLI; class meaning: paragraph 285

| binding result | Binder |
| --- | --- |
| binds | BIIB-12-932 (antibody, V domains shown, IgG) VH: QVQLVESGGGVVQPGRSLRLSCAASGFTFSSYGMHWVRQAPGKGLEWVAVISYDGSNKYYADSVKGRFTISRDNSKNTLYLQMNSLRAEDTAVYYCARLGYRGASAFDIWGQGTMVTVSS VL: not shown |
| binds | BIIB-12-935 (antibody, V domains shown, IgG) VH: QVQLVESGGGVVQPGRSLRLSCAASGFTFSSYGMHWVRQAPGKGLEWVAVISYDGSNKYYADSVKGRFTISRDNSKNTLYLQMNSLRAEDTAVYYCARELEYGHYGMDVWGQGTTVTVSS VL: not shown |
| binds | BIIB-12-1289 (antibody, V domains shown, IgG) VH: QVQLVQSGAEVKKPGASVKVSCKASGYTFTSYYMHWVRQAPGQGLEWMGIINPGGGSTSYAQKFQGRVTMTRDTSTSTVYMELSSLRSEDTAVYYCARGPPRTYATGSHNWFDPWGQGTLVTVSS VL: not shown |
| binds | BIIB-12-929 (antibody, V domains shown, IgG) VH: QVQLVQSGAEVKKPGASVKVSCKASGYTFTSYYMHWVRQAPGQGLEWMGIINPSGGSTSYAQKFQGRVTMTRDTSTSTVYMELSSLRSEDTAVYYCARDQGYSRSFDIWGQGTMVTVSS VL: not shown |
| binds | BIIB-12-934 (antibody, V domains shown, IgG) VH: QVQLVESGGGVVQPGRSLRLSCAASGFTFSSYGMHWVRQAPGKGLEWVAVISYDGSNKYYADSVKGRFTISRDNSKNTLYLQMNSLRAEDTAVYYCARESGGHSYGMDVWGQGTTVTVSS VL: EIVLTQSPATLSVSPGERATLSCRASQSVSSNLAWYQQKPGQAPRLLIYGASTRATGIPARFSGSGSGTEFTLTISSLQSEDFAVYYCQQFNDHPITFGGGTKVEI |
| binds | BIIB-12-1288 (antibody, V domains shown, IgG) VH: QVQLVQSGAEVKKPGASVKVSCKASGYTFTSYYMHWVRQAPGQGLEWMGIINPSGGSTSYAQKFQGRVTMTRDTSTSTVYMELSSLRSEDTAVYYCARGGANDYGSSSRWWYFDLWGRGTLVTVSS VL: not shown |
| binds | BIIB-12-1303 (antibody, V domains shown, IgG) VH: QVQLVESGGGVVQPGRSLRLSCAASGFTFSSYGMHWVRQAPGKGLEWVAVISYDGSNKYYADSVKGRFTISRDNSKNTLYLQMNSLRAEDTAVYYCARGPTSRLFQHWGQGTLVTVS VL: not shown |
| binds | BIIB-12-924 (antibody, V domains shown, IgG) VH: QVQLVESGGGVVQPGRSLRLSCAASGFTFSSYGMHWVRQAPGKGLEWVAVISYDGSNKYYADSVKGRFTISRDNSKNTLYLQMNSLRAEDTAVYYCAKGKSSERGLNPWGQGTLVTVSS VL: DIQMTQSPSSVSASVGDRVTITCRASQGISSWLAWYQQKPGKAPKLLIYAASSLQSGVPSRFSGSGSGTDFTLTISSLQPEDFATYYCQQGNSFPLTFGGGTKVEIK |
| binds | BIIB-12-1295 (antibody, V domains shown, IgG) VH: QVQLVQSGAEVKKPGASVKVSCKASGYTFTSYYMVWVRQAPGQGLEWMGIINPSGGSTSYAQKFQGRVTMTRDTSTSTVYMELSSLRSEDTAVYYCARVGGATTGKIGYGMDVWGQGTTVTVSS VL: DIQMTQSPSSVSASVGDRVTITCRASQGISSWLAWYQQKPGKAPKLLIYAASNLQSGVPSRFSGSGSGTDFTLTISSLQPEDFATYYCQQAISLPITFGGGTKVEIK |
| binds | BIIB-12-1301 (antibody, V domains shown, IgG) VH: QVQLVESGGGVVQPGRSLRLSCAASGFTFSSYGMHWVRQAPGKGLEWVAVISYDGSNKYYADSVKGRFTISRDNSKNTLYLQMNSLRAEDTAVYYCARTGNYGRGMPYWGQGTLVTVSS VL: EIVLTQSPATLSLSPGERATLSCRASQSVSSYLAWYQQKPGQAPRLLIYDASKRATGIPARFSGSGSGTDFTLTISSLEPEDFAVYYCQQSSSWPPTFGGGTKVEIK |
| binds | BIIB-12-1298 (antibody, V domains shown, IgG) VH: QVQLVESGGGVVQPGRSLRLSCAASGFTFSSYGMHWVRQAPGKGLEWVAVISYDGSNKYYADSVKGRFTISRDNSKNTLYLQMNSLRAEDTAVYYCAKGGSDRRVGSWGQGTLVTVSS VL: DIQMTQSPSSVSASVGDRVTITCRASQGISSWLAWYQQKPGKAPKLLIYAASSLQSGVPSRFSGSGSGTDFTLTISSLQPEDFATYYCQQTNSLPITFGGGTKVEIK |
| binds | BIIB-12-1316 (antibody, V domains shown, IgG) VH: QVQLVESGGGVVQPGRSLRLSCAASGFTFSSYGMHWVRQAPGKGLEWVAVISYDGSNKYYADSVKGRFTISRDNSKNTLYLQMNSLRAEDTAVYYCAKSGQYRAFDIWGQGTMVTVSS VL: DIQMTQSPSSVSASVGDRVTITCRASQGISSWLAWYQQKPGKAPKLLIYAASSLQSGVPSRFSGSGSGTDFTLTISSLQPEDFATYYCQQINNFPPTFGGGTKVEIK |
| binds | BIIB-12-1309 (antibody, V domains shown, IgG) VH: QVQLVESGGGVVQPGRSLRLSCAASGFTFSSYGMHWVRQAPGKGLEWVAVISYDGSNKYYADSVKGRFTISRDNSKNTLYLQMNSLRAEDTAVYYCARGRYTSRYFQHWGQGTLVTVSS VL: DIQMTQSPSSVSASVGDRVTITCRASQGISSWLAWYQQKPGKAPKLLIYAASSLQSGVPSRFSGSGSGTDFTLTISSLQPEDFATYYCQQANSLPITFGGGTKVEIK |
| binds | BIIB-12-926 (antibody, V domains shown, IgG) VH: QVQLVQSGAEVKKPGASVKVSCKASGYTFTSYYMHWVRQAPGQGLEWMGIINPSGGSTSYAQKFQGRVTMTRDTSTSTVYMELSSLRSEDTAVYYCARDGRMARGASPDYWGQGTLVTVSS VL: EIVMTQSPATLSVSPGERATLSCRASQSVSSNLAWYQQKPGQAPRLLIYGASTRATGIPARFSGSGSGTEFTLTISSLQSEDFAVYYCQQHSFWPPTFGGGTKVEIK |
| binds | BIIB-12-1302 (antibody, V domains shown, IgG) VH: QVQLVQSGAEVKKPGASVKVSCKASGYTFTNYGISWVRQAPGQGLEWMGWISAYNGNTNYAQKLQGRVTMTTDTSTSTAYMELRSLRSDDTAVYYCARARSDWRAFDIWGQGTMVTVSS VL: EIVMTQSPATLSVSPGERATLSCRASQSVSSNLAWYQQKPGQAPRLLIYGASTRATGIPARFSGSGSGTEFTLTISSLQSEDFAVYYCQQVNNLPLTFGGGTKVEIK |
| binds | BIIB-12-927 (antibody, V domains shown, IgG) VH: QVQLVQSGAEVKKPGASVKVSCKASGYTFTSYYMSWVRQAPGQGLEWMGIINPSGGSTSYAQKFQGRVTMTRDTSTSTVYMELSSLRSEDTAVYYCARDSGRKRYYYMDVWGKGTTVTVSS VL: EIVMTQSPATLSVSPGERATLSCRASQSVSSNLAWYQQKPGQAPRLLIYGASTRATGIPARFSGSGSGTEFTLTISSLQSEDFAVYYCQQFNLWPFTFGGGTKVEIK |
| binds | BIIB-12-1304 (antibody, V domains shown, IgG) VH: QVQLVESGGGVVQPGRSLRLSCAASGFTFSSYGMHWVRQAPGKGLEWVAVISYDGSNKYYADSVKGRFTISRDNSKNTLYLQMNSLRAEDTAVYYCAKGPGSRRFDIWGQGTMVTVSS VL: EIVMTQSPATLSVSPGERATLSCRASQSVSSNLAWYQQKPGQAPRLLIYGASTRATGIPARFSGSGSGTEFTLTISSLQSEDFAVYYCQQANVLPLTFGGGTKVEIK |
| binds | BIIB-12-1292 (antibody, V domains shown, IgG) VH: QVQLVQSGAEVKKPGASVKVSCKASGYTFTSYYIHWVRQAPGQGLEWMGIINPSGGSTSYAQKFQGRVTMTRDTSTSTVYMELSSLRSEDTAVYYCARDPGRRQSSGFDYWGQGTLVTVSS VL: EIVMTQSPATLSLSPGERATLSCRASQSVSSYLAWYQQKPGQAPRLLIYDSSNRATGIPARFSGSGSGTDFTLTISSLEPEDFAVYYCQQRLNFPFTFGGGTKVEIK |
| binds | BIIB-12-936 (antibody, V domains shown, IgG) VH: not shown VL: EIVMTQSPATLSVSPGERATLSCRASQSVSSNLAWYQQKPGQAPRLLIYGASTRATGIPARFSGSGSGTEFTLTISSLQSEDFAVYYCQQSHNLPPTFGGGTKVEIK |
| binds | BIIB-12-937 (antibody, V domains shown, IgG) VH: QVQLVQSGAEVKKPGASVKVSCKASGYTFTSYYMHWVRQAPGQGLEWMGIINPSGGSTSYAQKFQGRVTMTRDTSTSTVYMELSSLRSEDTAVYYCARPTRMLRSYGMDVWGQGTTVTVSS VL: not shown |
| binds | BIIB-12-931 (antibody, V domains shown, IgG) VH: QVQLVQSGAEVKKPGASVKVSCKASGYTFTSYYMSWVRQAPGQGLEWMGIINPSGGSTSYAQKFQGRVTMTRDTSTSTVYMELSSLRSEDTAVYYCARDPVQEYGPYYYYMDVWGKGTTVTVSS VL: EIVMTQSPATLSVSPGERATLSCRASQSVSSNLAWYQQKPGQAPRLLIYGASTRATGIPARFSGSGSGTEFTLTISSLQSEDFAVYYCQQAAYWPWTFGGGTKVEIK |
| binds | BIIB-12-930 (antibody, V domains shown, IgG) VH: QVQLVQSGAEVKKPGASVKVSCKASGYTFTSYYMHWVRQAPGQGLEWMGIINPSGGSTSYAQKFQGRVTMTRDTSTSTVYMELSSLRSEDTAVYYCARVRQKATLLFQHWGQGTLVTVSS VL: not shown |
| binds | BIIB-12-1291 (antibody, V domains shown, IgG) VH: QVQLVQSGAEVKKPGASVKVSCKASGYTFTSYYMHWVRQAPGQGLEWMGIINPSGGSTSYAQKFQGRVTMTRDTSTSTVYMELSSLRSEDTAVYYCARSRRMWVGYFDLWGRGTLVTVSS VL: EIVLTQSPATLSLSPGERATLSCRASQSVSSYLAWYQQKPGQAPRLLIYDASNRATGIPARFSGSGSGTDFTLTISSLEPEDFAVYYCQQRLNLPLTFGGGTKVEIK |
| binds | BIIB-12-933 (antibody, V domains shown, IgG) VH: QVQLVESGGGVVQPGRSLRLSCAASGFTFSSYGMHWVRQAPGKGLEWVAVISYDGSNKYYADSVKGRFTISRDNSKNTLYLQMNSLRAEDTAVYYCARLPRFTGTAYWGQGTLVTVSS VL: not shown |
| binds | BIIB-12-1297 (antibody, V domains shown, IgG) VH: QVQLVESGGGVVQPGRSLRLSCAASGFTFSSYGMHWVRQAPGKGLEWVAVISYDGSNKYYADSVKGRFTISRDNSKNTLYLQMNSLRAEDTAVYYCARSGGQTHRRSMDVWGQGTTVTVSS VL: EIVLTQSPATLSLSPGERATLSCRASQSVSRYLAWYQQKPGQAPRLLIYDASNRATGIPARFSGSGSGTDFTLTISSLEPEDFAVYYCQQGNNWPPTFGGGTKVEIK |
